Kd data for 1 substance are collected here from publication PMC6713926.

Values joined by “and” are separate entries in the source; they are usually repeats but may differ in a detail not shown here. Equal entries are not always repeated.

This assay addresses Biotinylated C3b (human) (UniProt P01024). In words: BLI; biotinylated C3b on streptavidin sensors; FPht variants at 100 to 1.56 μg/mL, 60 s steps; 30°C; 20 mM MES pH 6.0, 100 mM NaCl, 0.05% Tween, 1 mg/mL BSA; steady state 1:1 fit (for WT also kinetic analysis).

Biotinylated C3b (human), sequence (P01024 23-667, chain 1 of 2): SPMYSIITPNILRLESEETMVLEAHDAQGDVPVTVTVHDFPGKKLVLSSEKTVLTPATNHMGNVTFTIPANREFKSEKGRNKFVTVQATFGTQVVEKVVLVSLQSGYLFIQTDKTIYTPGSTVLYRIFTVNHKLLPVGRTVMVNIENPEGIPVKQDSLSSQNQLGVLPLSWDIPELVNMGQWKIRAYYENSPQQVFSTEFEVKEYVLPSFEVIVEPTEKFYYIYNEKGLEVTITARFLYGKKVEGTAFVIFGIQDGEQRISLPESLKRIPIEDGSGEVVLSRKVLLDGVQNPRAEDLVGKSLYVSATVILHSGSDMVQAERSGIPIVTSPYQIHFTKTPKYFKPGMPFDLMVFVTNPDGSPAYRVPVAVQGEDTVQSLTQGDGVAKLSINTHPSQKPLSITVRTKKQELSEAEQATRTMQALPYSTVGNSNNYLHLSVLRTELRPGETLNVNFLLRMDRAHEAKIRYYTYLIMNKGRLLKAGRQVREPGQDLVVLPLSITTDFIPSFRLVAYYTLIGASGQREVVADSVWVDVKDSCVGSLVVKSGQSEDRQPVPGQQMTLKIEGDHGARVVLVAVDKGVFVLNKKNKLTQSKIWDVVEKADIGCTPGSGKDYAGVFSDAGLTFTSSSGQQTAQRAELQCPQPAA
Biotinylated C3b (human), sequence (P01024 749-1663, chain 2 of 2): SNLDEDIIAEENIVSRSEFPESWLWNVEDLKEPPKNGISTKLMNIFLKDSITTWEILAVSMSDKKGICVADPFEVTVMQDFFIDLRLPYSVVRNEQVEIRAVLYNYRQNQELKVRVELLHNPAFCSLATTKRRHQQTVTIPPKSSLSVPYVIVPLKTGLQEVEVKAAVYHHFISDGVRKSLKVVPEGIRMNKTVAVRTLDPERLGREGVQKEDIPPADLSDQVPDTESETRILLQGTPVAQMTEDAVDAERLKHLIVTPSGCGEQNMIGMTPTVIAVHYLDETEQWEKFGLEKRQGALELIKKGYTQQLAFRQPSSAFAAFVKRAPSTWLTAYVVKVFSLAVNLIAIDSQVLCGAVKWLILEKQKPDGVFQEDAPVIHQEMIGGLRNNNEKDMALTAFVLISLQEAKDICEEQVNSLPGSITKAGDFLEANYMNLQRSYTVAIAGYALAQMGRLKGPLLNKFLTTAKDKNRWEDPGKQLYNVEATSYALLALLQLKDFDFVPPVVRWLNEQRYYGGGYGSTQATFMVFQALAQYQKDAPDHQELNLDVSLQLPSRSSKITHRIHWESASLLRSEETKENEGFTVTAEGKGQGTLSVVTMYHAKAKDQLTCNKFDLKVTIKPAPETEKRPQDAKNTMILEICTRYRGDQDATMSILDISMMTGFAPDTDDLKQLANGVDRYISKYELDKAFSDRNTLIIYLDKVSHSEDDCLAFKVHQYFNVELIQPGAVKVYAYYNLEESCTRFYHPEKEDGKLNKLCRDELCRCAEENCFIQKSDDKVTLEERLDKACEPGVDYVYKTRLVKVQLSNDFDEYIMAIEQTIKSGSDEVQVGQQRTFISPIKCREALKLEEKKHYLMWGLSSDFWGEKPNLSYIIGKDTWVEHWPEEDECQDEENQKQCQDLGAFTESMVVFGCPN

What is called Kd is the concentration at which binding is half-saturated. A low value points to higher affinity. With “FPht, monomeric FP head-tail protein from co-expression of FPh and FPt (complex)”, the Kd is 0.32 µM and 0.35 µM.
